Measurements as given in publication PMC3384324 (Nucleic Acids Research, 2012).

Target: the molecule itself
Test: cross-linking

B1: His6-PfORC1N_(1–238) (domain or fragment, Plasmodium falciparum 3D7, UniProt Q8I615 1-238, looked up)
chain: MTPKKKIFQNFQANDNEILSPTKKGIKLNVSKLNILNFENTIITKEKTNYEYKASLNKEIDEVLNNNNIINTHNNKKNNLNLYDYNNIKNSTHEFYIDLNEQNKQTIKYNDNKFTPINKKEKYNLDETSSSSISSSLTNISSSLTNISSSLTNISSSLSNSLDEKKKKKKIKKNNSTIINILNNNNNNSNIHHNNKHNIYNKYNISKKPQNKEIHTLPSNHQIKKKSNNTYNTCQQKM
- stoichiometry N: 2
